Source: the supplement of paper PMC9112550, “Optimization of the antimicrobial peptide Bac7 by deep mutational scanning” (BMC Biology, 2022)

Test system: Escherichia coli TOP10
Assay: shrunken log2 fold change of peptide-encoding DNA abundance (4.5 h post-induction vs induction); higher = less antimicrobial activity (less host growth inhibition)
Conditions: time post-induction: 4.5 h; library: site-saturation at positions 5, 18, 19, 20
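Further: peptides expressed intracellularly from a pBAD plasmid library in pooled LB shake-flask culture, induced with 0.3% L-arabinose, DNA abundance read by NGS, three biological replicates, DESeq2 with apeglm shrinkage.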

Sequence | shrunken log2 fold change
RRIRSRPPRLPRPRPRPYCPPRP | -0.802
RRIRTRPPRLPRPRPRPFCFPRP | -0.134
RRIRERPPRLPRPRPRPSDSPRP | -0.186
RRIRIRPPRLPRPRPRPMYCPRP | -0.183
RRIRMRPPRLPRPRPRPWCCPRP | 0.0172
RRIRSRPPRLPRPRPRPKHRPRP | -0.00685
RRIRFRPPRLPRPRPRPHSGPRP | 0.0508
RRIRKRPPRLPRPRPRPGGTPRP | 0.504
RRIRERPPRLPRPRPRPRNKPRP | -0.121
RRIRMRPPRLPRPRPRPEIFPRP | 1.27
RRIRTRPPRLPRPRPRPTGGPRP | 0.164
RRIRYRPPRLPRPRPRPFVVPRP | -0.786
RRIRYRPPRLPRPRPRPQHKPRP | -0.547
RRIRIRPPRLPRPRPRPITSPRP | -1.46
RRIRIRPPRLPRPRPRPSWCPRP | -0.532
RRIRLRPPRLPRPRPRPAHTPRP | 0.0258
RRIRQRPPRLPRPRPRPSPHPRP | -0.511
RRIRCRPPRLPRPRPRPLHKPRP | -0.0345
RRIRERPPRLPRPRPRPQGLPRP | -0.141
RRIRNRPPRLPRPRPRPRYNPRP | -1.04
RRIRVRPPRLPRPRPRPVYQPRP | -0.243
RRIRERPPRLPRPRPRPQIPPRP | -0.237
RRIRLRPPRLPRPRPRPRRLPRP | 0.18
RRIRVRPPRLPRPRPRPMRAPRP | 0.71
RRIRMRPPRLPRPRPRPTTMPRP | 0.558

Sequence | shrunken log2 fold change
RRIRGRPPRLPRPRPRPILIPRP | 0.191
RRIRARPPRLPRPRPRPSHSPRP | -0.101
RRIRPRPPRLPRPRPRPLRPPRP | 0.726
RRIRDRPPRLPRPRPRPSSFPRP | -0.178
RRIRSRPPRLPRPRPRPPKWPRP | 0.329
RRIRKRPPRLPRPRPRPIVDPRP | 0.234
RRIRCRPPRLPRPRPRPFDGPRP | -0.0927
RRIRSRPPRLPRPRPRPHHDPRP | -0.759
RRIRKRPPRLPRPRPRPVDFPRP | 0.103
RRIRWRPPRLPRPRPRPCVLPRP | -0.0369
RRIRNRPPRLPRPRPRPDFEPRP | -0.0968
RRIRWRPPRLPRPRPRPIFPPRP | 0.13
RRIRHRPPRLPRPRPRPPAAPRP | 0.0555
RRIRCRPPRLPRPRPRPHGFPRP | -0.0942
RRIRARPPRLPRPRPRPSCVPRP | 0.157
RRIRWRPPRLPRPRPRPGPCPRP | 0.101
RRIRDRPPRLPRPRPRPVDLPRP | 0.0194
RRIRCRPPRLPRPRPRPSLEPRP | -0.136
RRIRPRPPRLPRPRPRPFVKPRP | -0.133
RRIRARPPRLPRPRPRPYTAPRP | -0.0946
RRIRHRPPRLPRPRPRPTRPPRP | 0.234
RRIRNRPPRLPRPRPRPYCGPRP | -0.352
RRIRRRPPRLPRPRPRPCRVPRP | 0.0136
RRIRGRPPRLPRPRPRPEDWPRP | 1.45
RRIRDRPPRLPRPRPRPSSGPRP | -0.0626

Sequence | shrunken log2 fold change
RRIRSRPPRLPRPRPRPSITPRP | -0.392
RRIRCRPPRLPRPRPRPNVDPRP | -0.215
RRIRVRPPRLPRPRPRPMPVPRP | 0.00602
RRIRSRPPRLPRPRPRPMPQPRP | 0.126
RRIRTRPPRLPRPRPRPCHQPRP | -0.172
RRIRTRPPRLPRPRPRPFERPRP | -0.0347
RRIRVRPPRLPRPRPRPDPYPRP | -0.1
RRIRKRPPRLPRPRPRPNLKPRP | 0.286
RRIRYRPPRLPRPRPRPESFPRP | -0.0275
RRIRLRPPRLPRPRPRPVIWPRP | 0.0724
RRIRLRPPRLPRPRPRPIMKPRP | -0.489
RRIRMRPPRLPRPRPRPQLAPRP | 0.598
RRIRCRPPRLPRPRPRPGFAPRP | 0.354
RRIRHRPPRLPRPRPRPTSRPRP | 0.0698
RRIRMRPPRLPRPRPRPDHNPRP | -0.00429
RRIRFRPPRLPRPRPRPAYAPRP | 0.113
RRIRTRPPRLPRPRPRPWMRPRP | 0.556
RRIRPRPPRLPRPRPRPHPLPRP | 0.0451
RRIRPRPPRLPRPRPRPFQIPRP | -0.169
RRIRRRPPRLPRPRPRPFIDPRP | -0.162
RRIRQRPPRLPRPRPRPRWRPRP | 0.557
RRIRIRPPRLPRPRPRPYKMPRP | -0.889
RRIRTRPPRLPRPRPRPEISPRP | 0.00497
RRIRTRPPRLPRPRPRPVIKPRP | -0.237
RRIRLRPPRLPRPRPRPPLCPRP | 0.162

Sequence | shrunken log2 fold change
RRIRDRPPRLPRPRPRPQHLPRP | -0.444
RRIRWRPPRLPRPRPRPCNQPRP | -0.78
RRIRYRPPRLPRPRPRPCAIPRP | -0.0633
RRIRYRPPRLPRPRPRPITWPRP | -0.353
RRIRKRPPRLPRPRPRPVEHPRP | 0.455
RRIRFRPPRLPRPRPRPMMMPRP | -0.101
RRIRWRPPRLPRPRPRPPYNPRP | -0.221
RRIRTRPPRLPRPRPRPRDTPRP | -0.0276
RRIRDRPPRLPRPRPRPTNGPRP | -0.0673
RRIRRRPPRLPRPRPRPGFYPRP | -0.107
RRIRDRPPRLPRPRPRPLNYPRP | -0.372
RRIRGRPPRLPRPRPRPIKEPRP | -0.104
RRIRHRPPRLPRPRPRPEIVPRP | -0.0182
RRIRWRPPRLPRPRPRPWIKPRP | -0.203
RRIRFRPPRLPRPRPRPTYWPRP | 0.385
RRIRVRPPRLPRPRPRPFCPPRP | -0.0571
RRIRLRPPRLPRPRPRPCYCPRP | -0.219
RRIRWRPPRLPRPRPRPEDMPRP | 0.282
RRIRHRPPRLPRPRPRPIIRPRP | -0.507
RRIRGRPPRLPRPRPRPCYFPRP | -0.0409
RRIRMRPPRLPRPRPRPTIFPRP | -0.0388
RRIRCRPPRLPRPRPRPYHHPRP | -0.746
RRIRQRPPRLPRPRPRPKFVPRP | -0.105
RRIRERPPRLPRPRPRPHHYPRP | 0.125
RRIRKRPPRLPRPRPRPYIKPRP | -0.28

Sequence | shrunken log2 fold change
RRIRARPPRLPRPRPRPNHAPRP | 0.209
RRIRCRPPRLPRPRPRPHYIPRP | -0.0818
RRIRERPPRLPRPRPRPHRKPRP | -0.0945
RRIRMRPPRLPRPRPRPFHQPRP | -0.0752
RRIRQRPPRLPRPRPRPKLFPRP | -0.0707
RRIRERPPRLPRPRPRPPDAPRP | 0.142
RRIRPRPPRLPRPRPRPSEEPRP | 0.591
RRIRSRPPRLPRPRPRPGIVPRP | 0.119
RRIRHRPPRLPRPRPRPDKHPRP | -0.25
RRIRFRPPRLPRPRPRPDCVPRP | -0.0904
RRIRVRPPRLPRPRPRPAWSPRP | 0.192
RRIRTRPPRLPRPRPRPALYPRP | 0.0598
RRIRERPPRLPRPRPRPGKPPRP | 0.231
RRIRCRPPRLPRPRPRPEQGPRP | -0.205
RRIRTRPPRLPRPRPRPQGQPRP | -0.186
RRIRLRPPRLPRPRPRPWAWPRP | -0.0255
RRIRRRPPRLPRPRPRPHDRPRP | 0.103
RRIRLRPPRLPRPRPRPTYQPRP | -0.229
RRIRWRPPRLPRPRPRPCVVPRP | 0.0549
RRIRFRPPRLPRPRPRPIPYPRP | -0.102
RRIRWRPPRLPRPRPRPNWHPRP | -0.00322
RRIRSRPPRLPRPRPRPQSMPRP | -0.384
RRIRKRPPRLPRPRPRPTAPPRP | 1.05
RRIRTRPPRLPRPRPRPPITPRP | -0.235
RRIRRRPPRLPRPRPRPGWTPRP | 0.326
